Results as given in the supplement of paper PMC10567573.

B1: LOXL2 (parent)
chain: YVEVKEGKTWKQICDKHWTAKNSR

Variants of: B1
Experiment: protein stability index of a GFP-peptide fusion (GPS, HEK-293T) (PSI 1-6); higher = more stable
Details: c terminus: a fixed tail appended
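Note: lentivirally expressed fusions sorted by FACS into six bins by GFP to DsRed ratio, PSI derived from sequencing read proportions per bin multiplied by bin number.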

Protein stability index: each site, then its substitutions
T9: R 2.55 | H 1.86 | C 4.04 | M 2.92 | W 3.01 | I 2.48 | F 4.42 | D 1.6 | V 1.94 | G 2.11 | N 1.99 | K 2.43 | P 2 | S 2.56 | E 1.61 | Y 2.33 | L 2.52
E6: F 2.49 | T 2.77 | C 3.35 | K 2.89 | M 2.88 | A 2.14 | H 2.64 | L 2.79 | S 1.99 | N 2.44 | Q 4.18 | R 1.84 | V 3.77 | W 2.16 | I 1.47 | D 2.9 | Y 2.65 | P 2.18 | G 3.33
N22: P 1.89 | Q 1.82 | C 1.97 | S 1.92 | D 2.42 | V 2.79 | Y 2.23 | L 1.78 | A 3.24 | M 2.35 | W 3.39 | I 2.8 | F 2.29 | G 2.13 | R 1.8 | K 3.05 | T 2.54 | H 2.99 | E 2.25
W18: P 1.94 | G 2 | F 2.54 | Y 1.56 | T 1.94 | S 2.05 | V 2.66 | Q 1.84 | C 2.54 | D 3.01 | A 2.76 | R 1.5 | L 2.19 | H 3.04 | I 1.96 | M 2.46 | K 2.11 | N 2.58 | E 2.52
T19: M 1.99 | Y 2.29 | S 1.72 | E 2.15 | R 1.77 | K 1.87 | L 1.39 | H 1.78 | Q 3.17 | F 2.16 | V 2.26 | N 2.95 | W 2.64 | G 2.56 | D 2.34 | A 1.45 | C 2.75 | P 2.11
I13: R 2.59 | W 2.25 | V 2.44 | T 2.68 | K 2.81 | C 2.6 | E 2.33 | D 3.54 | M 2.19 | P 3.38 | Y 1.6 | N 1.37 | A 2.73 | S 2.38 | L 1.4 | H 2.42 | Q 2.5
K8: S 2.44 | G 1.85 | V 2.07 | T 1.55 | D 2.41 | M 1.91 | C 2.17 | L 2.01 | H 1.44 | R 2.24 | I 2.67 | P 2.63 | F 2.42 | N 1.68 | E 2.46 | Y 2.21 | A 2.49 | Q 3.07
G7: R 1.62 | P 1.96 | E 1.7 | M 1.72 | S 1.86 | Y 2.18 | V 2.8 | K 1.91 | H 1.62 | I 1.85 | L 1.95 | W 2.52 | T 1.24 | Q 2.42 | C 2.29 | N 2.64 | F 1.65 | A 1.61 | D 1.6
K21: N 2.15 | F 3.06 | M 2.13 | Y 2.14 | D 2.34 | H 1.85 | E 3.16 | S 1.99 | W 1.96 | V 2.03 | A 2.3 | L 1.95 | I 1.68 | R 3.06 | T 2.5 | G 2.14 | P 2.67
C14: M 2.98 | H 4.51 | E 2.5 | Q 1.74 | P 1.98 | Y 1.93 | L 1.8 | F 2.07 | W 4.18 | A 1.77 | V 1.93 | R 2.33 | D 2.4 | S 1.75 | I 2.16 | K 1.45 | N 1.99 | G 2.31 | T 2.52
K5: D 2.54 | H 1.85 | Q 3.01 | G 2.46 | C 1.65 | M 2.33 | N 1.86 | W 2.87 | I 2.46 | E 1.7 | R 3.94 | A 3.18 | L 2.65 | Y 1.78 | T 2.35 | P 1.7 | V 2.63 | S 1.46
D15: G 2.64 | S 2.56 | H 2.49 | E 3.34 | I 1.83 | M 2.05 | C 1.72 | T 2.26 | W 2.6 | V 2.49 | R 1.8 | Q 2.56 | P 1.76 | L 2.62 | A 2.96 | F 2.12 | Y 2.13 | N 2.27 | K 2.94
H17: C 1.56 | E 2.3 | G 3.27 | D 1.84 | S 1.82 | R 3.35 | N 2.89 | I 2.14 | M 2.41 | Y 3.47 | F 3.2 | A 3 | V 3.44 | T 1.97 | Q 1.53 | P 3.06 | L 2.81 | K 2.98
Q12: N 2.61 | F 2.46 | A 1.56 | L 2.39 | E 1.58 | M 2.64 | V 1.48 | I 3.16 | K 2.63 | C 1.58 | T 2.43 | D 2.02 | R 3.12 | Y 2.07 | H 3.06 | W 2.42 | P 2.31 | G 2.63
V4: S 2.73 | W 1.39 | Y 1.14
A20: L 2.16 | C 2.46 | T 2.03 | Y 2.27 | V 2.11 | G 1.75 | R 2.71 | M 2.35 | P 1.67 | D 2.59 | E 1.98 | F 1.9 | S 2.73 | Q 2.54 | K 2.25 | H 2.07 | I 1.99
S23: C 2.73 | A 2.97 | F 1.19 | G 1.83 | E 2.17 | D 2.41
W10: P 2.69 | Q 2.7 | T 2.91 | H 2.44 | S 2.73 | N 2.5 | F 2.47 | R 2.2 | K 2.61 | L 2.46 | M 2.37 | G 2.23 | D 3.03 | Y 1.93 | V 2.78 | A 2.42 | C 2.17 | I 2.3 | E 2.99
K11: C 2.28 | W 3.53 | S 3.37 | I 2.23 | L 2.53 | Q 1.83 | H 2.45 | F 3.38 | G 2.77 | Y 4.35 | T 2.93 | V 2.1 | P 1.99 | D 1.18 | E 2.28 | R 2.52 | M 2.1
K16: A 2.08 | G 3.14 | M 2.3 | E 1.19 | W 2.44 | F 2.02 | Y 2.82 | P 1.95 | Q 2.24 | I 2.32 | H 2.83 | L 2.42 | D 3.38 | N 1.93 | R 3.43 | V 2.46 | S 3.34
